US5456909A, “Glycoform fractions of recombinant soluble complement receptor 1 (sCR1) having extended half-lives in vivo” (T Cell Sciences, Inc., priority 1992, dated 1995)
Where “and” joins values, the source holds several entries; their conditions need not be identical. Equal values may be shown once.

How the values were obtained:
[1] = Pharmacokinetic studies 1, 4, 5, 7, 9: iv clearance of 125I-labelled TP10HD preparations in rats; format: in vivo, Sprague-Dawley rats
Procedure: In Studies 1, 2, 4, 5, 7 and 9, Iodination was carried out by the chloramine-T procedure. Sodium phosphate buffer, 0.5M, pH 7.6, 50 μl, was added to 1 mCi of Na-^125 I (New England Nuclear, Boston, Mass.) as supplied. The sample of TP10HD, typically 100 μg in 100 μl (Study 5=69 μg; Study 7=34 μg; Study 9=91 μg), was added followed by 50 μl of a 15 mg/ml solution of freshly prepared chloramine-T. The reaction mixture was vigorously shaken for 60 seconds. Sodium metabisulfite (50 μl, 15 mg/ml) and sodium iodide (100 μl, 10 mg/ml) were successively pipetted into the reaction vial. The reaction mixture was passed onto a PD10 column (Pharmacia Fine Chemicals, Piscataway, N.J.), pre-equilibrated with phosphate buffered saline, pH 7.2-7.4, containing 0.1% bovine serum albumin (Sigma Chemical Company, St. Louis, Mo.). Ten 0.5 ml fractions were collected and 2 μl aliquots were counted directly and after combining with 100 μl of a 0.1% bovine serum albumin solution and 1 ml of 20% trichloroacetic acid. After incubation at 0° C. for 1 hour, the acid-precipitable protein associated radioactivity was collected by centrifugation for 10 minutes at 1000×g and quantitated by scintillation counting. Fractions containing >90% of the total radioactivity in the acid precipitate were pooled for further use.
Study 1: Radioiodinated TP10HD-CX was mixed with purified unlabeled TP10HD-CX to yield a dosing solution suitable for administering a 1 mg/kg total TP10HD dose containing 16-25×10^6 cpm of radiolabeled TP10HD-CX.
Study 4: Radioiodinated TP10HD-CC was mixed with purified unlabeled TP10HD-CC to yield a dosing solution suitable for administering a 1 mg/kg or a 3 mg/kg total TP10HD dose containing ~20×10^6 cpm.
Study 5: Radioiodinated TP10HD-CCW was mixed with purified unlabeled TP10HD-CCW to yield a dosing solution suitable for administering a 1 mg/kg total TP10HD dose containing ~20×10^6 cpm.
Study 7: Radiolabeled TP10HD-CCS was mixed with purified unlabeled TP10HD-CCS to yield a dosing solution suitable for administering a 1 mg/kg total TP10HD dose containing ~20×10^6 cpm.
Study 9: Radioiodinated TP10HD-CXD was mixed with purified unlabeled TP10HD-CXD to yield a dosing solution suitable for administering a 1 mg/kg total TP10HD dose containing ~20~10^6 cpm.
In Studies 1, 4, 5, 7 and 9, test material was injected intravenously (iv) into four Sprague-Dawley rats (2 male, 2 female). Blood samples were obtained from the retroorbital plexus at 1, 3, 5, 10, 20, 30, 45, and 60 minutes post injection, and the radioactivity determined. Additional post infusion blood samples were taken at 2, 3, and 4 hours postinjection (STUDY 4) and at 120 minutes (STUDY 5). The plasma fraction of the remaining blood sample was retained for further analysis.
Plasma samples were analyzed for residual test material by measuring:
(1) total residual radioactivity;
(2) percentage of radiolabeled material precipitated with TCA;
(3) residual acid precipitable radioactivity in the presence of SDS; and
(4) material immunologically identifiable in an enzyme immunoassay as TP10HD.
Radioisotope data was quantitated as total cpm/ml blood or plasma and as the percentage of a theoretical time zero value. Pharmacokinetic half-life was calculated from the radiometric data.
In Study 9, removal of N-linked oligosaccharide chains was performed by n-glycanase digestion, performed according to manufacturer's instructions (Genzyme Corporation, Boston, Mass.). Typically, 58 μg TP10HD-CX was incubated with 10.5 units of n-glycanase for 18 hours, 37° C., in 0.2M sodium phosphate, pH 8.6 buffer.
Precipitation with trichloroacetic acid was performed as follows: Plasma (20 μl) was precipitated by sequential addition of 450μl of 0.13M Tris HCl, 4% SDS, 10% glycerol, pH 6.8 buffer, followed by 30 μl of fetal bovine serum and 500μl of 20% trichloroacetic acid. […]

[2] = test system: complement-mediated lysis of antibody coated SRBC; experiment: Inhibition of complement-mediated hemolysis of antibody-sensitized SRBC in vitro; format: cell-based, human; conditions: for IH50 (concentration giving 50% inhibition of hemolysis): SRBC, human serum as complement source; for antihemolytic potency comparison, in words: in vitro
Procedure: SRBC presensitized with rabbit anti-SRBC antibody (Diamedix, Miami, Fla.) were mixed in a V-bottom microtiter wells (Costar, Cambridge, Mass.) with an appropriate dilution of the test plasma and an aliquot of diluted human serum as a complement source. After incubation, 37° C., 1 hour, the unlysed red cells were pelleted by centrifugation, the supernatant transferred to corresponding flat bottom microwells (Costar, Cambridge, Mass.), and absorbance at 415 nm measured. Inhibition of complement-mediated lysis of the antibody coated SRBC was measured as a reduction in the absorbance in the presence of test sample.
A range of dilutions of TP10HD or TP10HD glycoform spanning 7.8 to 1000 ng/ml was examined for each sample.

[3] = Pharmacokinetic study 3: iv TP10HD-CC in pigs, residual functional activity by hemolysis inhibition with pig complement; format: in vivo; conditions: 1 mg/kg
Procedure: Study 3: TP10HD-CC was administered as supplied to a final dose of 1 mg/kg.
In Study 3, test material was injected iv through a jugular vein cannula into piglets ranging in weight from 4.5 to 6.1 kg. Blood samples were taken via a previously implanted jugular vein cannula into syringes containing lithium heparin at a final concentration of 15 units/ml. A preinfusion sample, 10 ml, was taken at zero time and postinfusion samples, 1.0 ml, were taken at 5, 10, 15, 30, 45, 60, 120, 180, 240, 300, 360 minutes and 24 hours. Anticoagulated blood samples were centrifuged at ~3000 rpm, 4° C., 5 minutes and the platelet-poor plasma was aliquotted and stored at or below -70° C.
Plasma samples were analyzed for residual test material by an in vitro functional assay, as above, using pig rather than human complement. Pharmacokinetic half-life was calculated from the titer of the residual functional activity.
Prior to infusion with TP10HD-CC, plasma was collected from each pig to be used as a sample diluent and complement source for the hemolysis assay. Test samples were diluted a minimum of 1:50 with 0.1M Hepes, 0.15M NaCl, pH 7.4 buffer. For greater dilution, test samples were diluted with preinfusion plasma already diluted 1:50 in the same buffer, thereby maintaining the final plasma concentration at 1:50. At this dilution, the degree of hemolysis was equivalent to hemolysis with human complement, as described above. Other manipulations were as described above. Standard curves with known quantities of TP10HD can be used to calibrate the assay so that results can be expressed as μg/ml TP10HD remaining in the plasma versus time.
The pharmacokinetic parameters for clearance rate, compartment volume, rate constants and half-life were obtained by fitting the data for each pig to two and three compartment models. […] These phases represent 69% and 31% respectively of the given dose such that approximately one-third of the dose was cleared slowly.

[4] = Isoelectric point by chromatofocusing (Mono P, pH 7.1 to 4.0); format: physicochemical
Procedure: Chromatofocusing is a method of separating isoforms of proteins according to their isoelectric point, pI, using an ion exchange column and a pH gradient created with amphoteric buffers of different pH. In this study, analysis of the TP10HD preparations was performed using a pH gradient of 7.1 to 4.0. The chromatographic resin was Mono P, Hr5/5 (Pharmacia Fine Chemicals, Piscataway, N.J.); the starting buffer was 0.025M Bis/Tris titrated to pH 7.1 with saturated iminodiacetic acid; the eluant was polybuffer 7-4 (Pharmacia Fine Chemicals, Piscataway, N.J.) diluted 1:10 (v/v) with water and adjusted to pH 4.0 with HCl; cleaning buffer was 2M NaCl in water. The experimental conditions were chosen to yield a linear pH gradient of 7.1 to 4.0 units.

[5] = Pharmacokinetic studies 6 and 8: iv TP10HD-CCW and TP10HD-CCS in rabbits, radiometric and immunoassay; format: in vivo, Dutch rabbits; conditions: 1 mg/kg
Procedure: In Studies 6 and 8, iodination was performed by the iodogen method (Fraker et al., 1978, Biochem Biophys Res Commun 80:849); the average degree of ^125 I substitution was 0.56 atoms/molecule of protein resulting in a specific activity of 22.7 kBq/mg for STUDY 6, and the average degrees of ^125 I substitution was 0.76 atoms/molecule of protein resulting in a specific activity of 29.5 kBq/mg for STUDY 8.
Studies 6 and 8: As described in STUDY 2 except that the radioiodinated TP10HD-CCW was added to ~1% w/w.
In Studies 6 and 8, test material was injected iv into a group of 5 Dutch rabbits (approximately 1 kg) at a dose of 1 mg/kg. Blood samples, 1 ml, were taken from an ear artery immediately predosing and at 5, 10, 20, 30, 60, 120 and 180 minutes, mixed with heparin, and radioactivity determined in an aliquot by scintillation counting after precipitation with trichloroacetic acid.
Plasma samples were analyzed for residual test material by an enzyme immunoassay (EIA) specific for TP10HD. Pharmacokinetic half-life was calculated from both the radiometric and immunoassay data.
Precipitation with trichloroacetic acid was performed as follows: Plasma (20 μl) was precipitated by sequential addition of 450μl of 0.13M Tris HCl, 4% SDS, 10% glycerol, pH 6.8 buffer, followed by 30 μl of fetal bovine serum and 500μl of 20% trichloroacetic acid. After each addition, the tubes were vigorously mixed and incubated for […] at 4° C.; the pellets of precipitable protein were collected by centrifugation at 1000×g for 10 minutes, the supernatants removed and discarded, and the residual radioactivity measured by scintillation counting.
A commercially available assay was utilized (Cellfree® CD35, T Cell Diagnostics, Inc. Cambridge, Mass.). In brief, polystyrene beads coated with polyclonal rabbit anti-TP10HD antibodies were simultaneously incubated with the diluted test sample and a horse radish peroxidase-conjugated polyclonal rabbit anti-TP10HD antibody. Following incubation, the beads were removed from the reaction mixture, washed of nonspecifically bound material, and subsequently incubated in the presence of an appropriate dilution of substrate. Color development was terminated by the addition of sulfuric acid and the absorbance (optical density) determined as a measure of TP10HD concentration.

| Substance | α phase half-life ([1]; 1 mg/kg) [h] | β phase half-life ([1]; 1 mg/kg) [h] | IH50 (concentration giving 50% inhibition of hemolysis) [2] | antihemolytic potency comparison, in words [2] | % dose cleared, α-phase ([5]; immunoassay data) [%] | % dose cleared, β-phase ([5]; immunoassay data) [%] | Serum half-life, α-phase ([5]; immunoassay data) [h] | Serum half-life, β-phase ([5]; immunoassay data) [h] | Total Clearance ([5]; immunoassay data) [mL/min/kg] | % dose cleared, β-phase ([5]; radiometric data) | Peak (t = O) concentration ([5]; radiometric data) [µg/mL] | Serum half-life, β-phase ([5]; radiometric data) | Total Clearance ([5]; radiometric data) | Volume of Distribution, α-phase ([5]; radiometric data) [L/kg] | Volume of Distribution, β-phase ([5]; radiometric data) | other results |
| --- | --- | --- | --- | --- | --- | --- | --- | --- | --- | --- | --- | --- | --- | --- | --- | --- |
| TP10HD-CC: TP10HD produced by cells cultured in a fluidized bed perfusion bioreactor and purified by combination chromatography | 0.153 | 3.018 | about 50±3 ng/ml | no basis for concluding that TP10HD-CC, TP10HD-CCW and TP10HD-CCS differ in their potency |  |  |  |  |  |  |  |  |  |  |  | α phase half-life ([1]; 3 mg/kg): 0.163 h; β phase half-life ([1]; 3 mg/kg): 4.452 h; potency relative to the strongly cationic glycoform (fold lower) ([2]; from IH50 of TP10HD-CX and TP10HD-CC): approximately 2 fold; % of given dose represented by α-phase [3]: 69%; % of given dose represented by β-phase [3]: 31%; Peak (t = O) concentration [3]: 29.3 µg/mL; Total Clearance [3]: 0.24 mL/min/kg; Volume of Distribution, α-phase [3]: 0.036 L/kg; Volume of Distribution, β-phase [3]: 0.073 L/kg; plasma level 24 hours after dosing ([3]; 24 hours): not distinguishable from control levels; Serum half-life, α-phase ([3]; mean of 8 animals): 8.3 min; Serum half-life, β-phase ([3]; mean of 8 animals): 6 h and 6.05 h; mean half-life, β-phase ([3]; two-compartment model): 6 h; pI of dominant isoforms ([4]; chromatofocusing): 5.1 and 4.8; pI of minor isoforms ([4]; chromatofocusing, smaller quantities / minor component): 5.7; proportion of preparation with pI <4.9 ([4]; peak integration): approximately 40% |
| TP10HD-CCS: the strongly cationic form of TP10HD-CC isolated by preparative HPLC cation exchange chromatography | 0.111 | 2.22 | ~27 ng/mL | no basis for concluding that TP10HD-CC, TP10HD-CCW and TP10HD-CCS differ in their potency | 73 | 27 | 0.167 | 1.27 | 1.24 | 25.5 ± 1.5% and ~25% | 14.6 ± 1.0 | 3.6 h and 3.608 ± 0.613 h | 0.85 ± 0.12 mL/min/kg and 0.85 mL/min/kg | 0.0698 ± 0.0048 | 162.0 ± 13.9 ml/kg and ~ 162 ml/kg |  |
| TP10HD-CCW: the weakly cationic form of TP10HD-CC isolated by preparative HPLC cation exchange chromatography | 0.2035 | 1.67 | 44 ng/mL | no basis for concluding that TP10HD-CC, TP10HD-CCW and TP10HD-CCS differ in their potency | 30 | 70 | 0.233 | 6.27 | 0.1 | 69.1 ± 1.9% and ~70% | 17.8 ± 0.3 | 3.6 h and 3.61 ± 0.313 h | 0.26 ± 0.02 mL/min/kg and 0.26 mL/min/kg | 0.0562 ± 0.001 | 22.6 ± 1.9 ml/kg and ~ 23 ml/kg |  |
